From patent US20110142842A1 (published 2011) come the findings set out here.

This assay addresses T1, CD20 peptide on HLA-A*02:01 (human).
T1 peptide: SLFLGILSV
In words: multimer staining.

B1: TCR of SEQ ID NOs 177 and 150 (CDR3 alpha and CDR3 beta) (TCR)
alpha TRAV30 J-57 CDR3: GTQGGSEKLV
beta TRBV19 J2-7 CDR3: ATAPGLSYEQY
Turning to B1, the binding result is reported as “recognises”.

B2: TCR of SEQ ID NOs 181 and 155 (CDR3 alpha and CDR3 beta) (TCR)
alpha TRAV24 J-28 CDR3: AFMPGAGSYQLT
beta TRBV4-2 J2-7 CDR3: ASSQGLTYEQY
With B2, the binding result was “recognises”.

B3: TCR of SEQ ID NOs 179 and 153 (CDR3 alpha and CDR3 beta) (TCR)
alpha TRAV38-2/DV8 J-43 CDR3: AYASFDMR
beta TRBV13 J2-3 CDR3: ASSLGSANTQY
With B3, the binding result is recorded as “recognises”.

B4: TCR of SEQ ID NOs 180 and 154 (CDR3 alpha and CDR3 beta) (TCR)
alpha TRAV5 J-23 CDR3: AEWGQGGKLI
beta TRBV12-4 J2-7 CDR3: ASSPGLTYEQY
For the molecule B4, the binding result is on record as “recognises”.

B5: TCR of SEQ ID NOs 175 and 148 (CDR3 alpha and CDR3 beta) (TCR)
alpha TRAV12-2 J-33 CDR3: AGIMDSNY
beta TRBV4-2 J2-7 CDR3: ASSHGNGYEQY
In the case of B5, the binding result is given as “recognises”.
